Consider six molecules from patent US20230021840A1, “USE OF GP73 INHIBITOR IN PREPARATION OF MEDICINE FOR TREATING DIABETES” (BEIJING SUNGEN BIOMEDICAL TECHNOLOGY CO. LTD., priority 2020, published 2023).

“Also recorded” adds a separate entry of the source.

In data set [1] the target is glucagon (UniProt P01275). The experiment in a line: SPR, Reichert 4SPR. (In general: SPR reads the build-up and loss of mass on a sensor chip optically.)
Data set [2] has as its target glucagon (UniProt P01275). Briefly: OpenSPR, GP73 coupled to amine sensor chip, glucagon in mobile phase.
The target in data set [3] is glucagon (UniProt P01275). The experiment in a line: microscale thermophoresis (MST), His-tagged GP73 labelled with RED-tris-NTA, GCG titrated. On the technique in general: Microscale thermophoresis detects binding through changes in fluorescence in a small temperature gradient.
The test system of data set [4] is mice with type II diabetes. The experiment in a line: GP73 siRNA treatment of high-fat-diet-induced mice with type II diabetes. The format is in vivo, C57BL/6N mice. Particulars: for HbA1c: serum. On the procedure: 2. In the present invention, the detection method of glucose in mice is as follows: all blood samples were collected from the tail, and the blood glucose was tested by a full-automatic glucometer (ACCU-CHEK; Roche) through a glucose oxidase method; normal mice and diabetic mice were fasting for 6 h, and fasting blood glucose was tested; the random blood glucose level was tested at 9:00 am; and when the blood glucose level is greater than 35 mM (the upper limit of glucometer), it was recorded as 35 mM.
3. In the present invention, the detection method of the glycometabolism experiment is as follows: In the glucose, insulin and pyruvate tolerance tests, mice were fasting for 12 h and then injected with D-glucose (Sigma, Art. No.: G8270, 1.5 g/kg body weight), insulin (Sigma, Art. No.: 19278, 0.75 U/kg body weight) or sodium pyruvate (Sigma, Art. No.: P2256, 2 g/kg body weight) at […]; at 0 min, 15 min, 30 min, 45 min, 60 min, 120 min and 24 h after injection, blood was collected from the tail vein of mice, and blood glucose was tested to determine the intraperitoneal glucose tolerance (IPGTT), pyruvate tolerance (PTT) and insulin tolerance (ITT).
Experimental method: On this basis, C57BL/6N mice (male, 8-10 weeks old, 20-22 g) were selected, and after feeding high-fat diet for 20 weeks, the animals were fasting for 6 h, and the fasting blood glucose was tested. […] According to the fasting blood glucose, the mice were randomly divided into the Ctr siRNA group and the GP73 siRNA experimental group, 6 mice per group. The mice were first injected with 4 nM at the tail vein, and then intraperitoneally injected with 4 nM, once every 5 days. The mice were sacrificed 4 weeks after the first injection, and the indicators such as blood glucose and glycated hemoglobin were detected.

In another data set the test system is endogenous GP73. Briefly: Knockdown of endogenous GP73 in H22 cells (western blotting). To be noted: H22 mouse liver cells; 24 h after transfection. The format is cell-based. As to the method: Experimental method: A total of 9 RNAi oligos (Table 7, SEQ ID NOs. 1-9) targeting different sites of mouse GP73 were firstly synthesized, and H22 mouse liver cells were transfected and collected for the western blotting experiments 24 h after transfection.

The target of data set [5] is T1, GCG (Homo sapiens, UniProt P01275).
T1 construct: purchased MCE HY-P0082
T1 sequence (P01275 53-81 limits assumed, species assumed): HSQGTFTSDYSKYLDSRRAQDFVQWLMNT
Briefly: Affinity of recombinant soluble GP73 and GCG by Reichert 4SPR. The data set is classed as binding.

Data set [6] addresses T1, GCG. The experiment in a line: Affinity of recombinant soluble GP73 and GCG by microscale thermophoresis (MST). The format is binding.
Data set [7] addresses T1, GCG. The experiment in a line: Affinity of recombinant soluble GP73 and GCG by OpenSPR. The data set is classed as binding.
The test system of a further data set is PKA. The experiment in a line: PKA phosphorylation and kinase activity in HepG2 cells (western blotting). The data set is classed as cell-based. Particulars: versus PBS control. A general note: In western blotting, separated proteins are transferred to a membrane and probed.

For the molecule recombinant mouse soluble GP73, the Kd – broadly, the concentration at which binding is half-saturated – in the data set with glucagon [1] was 1550 nM; with glucagon [2], 3210 nM; with glucagon [3] it was 410 nM.
In data set [4] (4 weeks after treatment), “Ctr siRNA: RNAi oligos with disrupted sequences used as control, AUCACACCAACACAGGUCCTT (chemistry not given here)” came in with an ALT of 77 ± 22, an AST of 243 ± 65, a CHO of 5.62 ± 0.97 and a TG of 1.27 ± 0.37. Further, the HbA1c in data set [4] (4 weeks after treatment) is recorded as 4.39±0.67%. For the same molecule, the HbA1c in data set [4] (4 weeks after treatment, listed as Ctrl siRNA) is recorded as 4.39 ± 0.67%. The molecule also registered a Fasting blood glucose in [4] (Week 0) of 12.0 ± 1.7 mM. This molecule also showed a Fasting blood glucose in data set [4] (Week 4, injection once every 5 days) of 12.2 ± 3.0 mM.
“No. 4: GP73 siRNA 995-CCAACAGGCAUCCAUCCAATT (unmodified) (2'-OMe throughout, phosphorothioates at both ends, 3'-cholesterol, counts not given here)”: the “Knockdown efficiency of endogenous GP73” value in the data set on endogenous GP73 is “good knockdown efficiency”.
With recombinant rat soluble GP73, the results for the Kd with glucagon [1], with glucagon [2] and with glucagon [3] were 730 nM, 3190 nM and 580 nM, respectively.
Take recombinant monkey soluble GP73: the equilibrium dissociation constant (Kd) is 350 nM in the data set with glucagon [1] and 120 nM in the data set with glucagon [3].

B1: rhsGP73: recombinant human soluble GP73, NCBI Reference Sequence NP_057632.2 (protein)
chain: AAAERGAVELKKNEFQGELEKQREQLDKIQSSHNFQLESVNKLYQDEKAVLVNNITTGERLIRVLQDQLKTLQRNYGRLQQDVLQFQKNQTNLERKFSYDLSQCINQMKEVKEQCEERIEEVTKKGNEAVASRDLSENNDQRQQLQALSEPQPRLQAAGLPHTEVPQGKGNVLGNSKSQTPAPSSEVVLDSKRQVEKEETNEIQVVNEEPQRDRLPQEPGREQVVEDRPVGGRGFGGAGELGQTPQVQAALSVSQENPEMEGPERDQLVIPDGQEEEQEAAGEGRNQQKLRGEDDYNMDENEAESETDKQAALAGNDRNIDVFNVEDQKRDTINLLDQREKRNHTL
For B1, the figures for the Kd with GCG [5], with GCG [6] and with GCG [7] were 2830 nM, 2450 nM and 2800 nM, respectively. Besides, in the data set on PKA, the “PKA phosphorylation level (PKA-p) and kinase activity (RRXρS/T)” value is “significantly up-regulated; also recorded: promotes the phosphorylation level (PKA-p) and kinase activity”.
